{
  "source": "paper PMC7527988",
  "about": "“Cell-free biogenesis of bacterial division proto-rings that can constrict liposomes” (Communications Biology, 2020)",
  "binders": {"B1": {"name": "soluble ZipA labelled with Alexa Fluor 488 (domain or fragment)", "chain": "not shown", "modifications": "Alexa Fluor 488 label, 0.9 ± 0.2 mol of fluorophore per mol of protein", "notes": "Held on the supported lipid bilayer through the His6-tag and DGS-NTA lipids; also called sZipA-A488; sZipA; not shown: His6, N-terminal, kept"}},
  "molecular_target": "T1, FtsZ labelled with Alexa Fluor 647 (E. coli, UniProt P0A9A6 1-383, Alexa Fluor 647 label, 0.9 ± 0.2 mol of fluorophore per mol of protein)",
  "T1 construct": "FtsZ, Escherichia coli cell division protein; called wild-type in the discussion; The label was added to the polymerised protein; also called FtsZ-A647",
  "T1 sequence (looked up)": "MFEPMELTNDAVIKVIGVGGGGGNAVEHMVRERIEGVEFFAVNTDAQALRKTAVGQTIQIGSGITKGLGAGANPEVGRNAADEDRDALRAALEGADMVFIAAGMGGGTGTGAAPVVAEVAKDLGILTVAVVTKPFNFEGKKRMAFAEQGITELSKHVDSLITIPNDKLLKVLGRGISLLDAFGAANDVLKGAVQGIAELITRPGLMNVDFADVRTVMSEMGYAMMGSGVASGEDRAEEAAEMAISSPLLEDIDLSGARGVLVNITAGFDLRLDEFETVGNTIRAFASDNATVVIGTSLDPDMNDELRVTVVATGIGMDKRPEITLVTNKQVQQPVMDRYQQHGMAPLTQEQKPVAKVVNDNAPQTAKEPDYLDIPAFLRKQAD",
  "assay": "recruitment to a supported lipid bilayer, fluorescence microscopy; 1 µM purified sZipA-A488 first incubated on the SLB with DGS-NTA lipids, washed; 3 µM purified FtsZ-A647 with 2 mM GTP added in minimal reaction buffer or PUREfrex2.0, with 50 g/L Ficoll70 or cell-free synthesized ZapA; spinning disk microscopy at room temperature",
  "conditions": "both partners purified",
  "data": [
    {"binder": "B1", "values": [
      {"measurement": "binding result", "result": "binds"}
    ]}
  ]
}
